These are literature values, as cited in PMC10947368.

In one data set the target is IL-2Rα (Homo sapiens) (UniProt P01589).
For data set [1], the target named is IL-2Rβ/γc heterodimeric receptor (Homo sapiens) (UniProt P14784).
UniProt P14784, sequence (P14784 27-240, chain 1 of 2): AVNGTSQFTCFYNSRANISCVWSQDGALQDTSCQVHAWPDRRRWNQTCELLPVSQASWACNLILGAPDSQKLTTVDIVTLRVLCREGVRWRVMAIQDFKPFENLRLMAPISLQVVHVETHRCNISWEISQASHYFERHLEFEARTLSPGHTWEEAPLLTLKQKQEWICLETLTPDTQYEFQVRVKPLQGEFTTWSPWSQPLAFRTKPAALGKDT
UniProt P14784, sequence (P31785 23-262, chain 2 of 2, further chain): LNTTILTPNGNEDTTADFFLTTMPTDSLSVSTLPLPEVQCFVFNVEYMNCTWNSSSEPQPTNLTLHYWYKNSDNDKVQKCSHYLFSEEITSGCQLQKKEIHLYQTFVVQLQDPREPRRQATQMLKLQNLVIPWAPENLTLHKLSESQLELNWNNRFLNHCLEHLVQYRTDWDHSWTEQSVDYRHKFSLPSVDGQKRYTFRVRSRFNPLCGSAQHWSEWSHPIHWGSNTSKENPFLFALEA

UniProt P01589, sequence (P01589 22-240): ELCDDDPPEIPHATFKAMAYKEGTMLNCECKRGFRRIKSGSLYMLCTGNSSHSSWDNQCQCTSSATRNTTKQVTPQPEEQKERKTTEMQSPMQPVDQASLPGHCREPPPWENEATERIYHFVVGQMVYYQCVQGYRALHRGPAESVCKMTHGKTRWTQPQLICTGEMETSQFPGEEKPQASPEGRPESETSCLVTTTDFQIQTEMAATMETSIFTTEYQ

For orientation: Kd means the free concentration of one partner at which half of the binding sites on the other are occupied at equilibrium, for simple one-to-one binding. As for Interleukin-2 (from UniProt P60568), the Kd in the data set with IL-2Rα (Homo sapiens) was 10 nM; in data set [1] it was 1 nM.
